Measurements taken from PMC4092071.

Experiments:
Assay in all cases: equilibrium inhibitor binding assay (free trypsin by residual activity on a fluorogenic substrate); BPTI variants (0-100 pM) and trypsin (50 pM) in solution, 15 h at 22°C, 0.1 M Tris-HCl (pH 8.0), 1 mM CaCl2, 0.05% Tween 20; free trypsin from cleavage of Z-Gly-Pro-Arg-AMC; free protease against total inhibitor fitted with a quadratic equation
[1] = target: non-sulfated human anionic trypsin (human) (UniProt P07478)
[2] = target: non-sulfated human cationic trypsin (human)
[3] = target: sulfated human anionic trypsin (human) (UniProt P07478)
[4] = target: sulfated human cationic trypsin (human)

Row | Substance | Kd [1] [pM] | Kd [2] [pM] | Kd [3] [pM] | Kd [4] [pM]
1 | BPTI variant carrying Leu at P2′ (P1′ Ala, P3′ Asp, P4′ Ile, P19′ Val) (designed binder) | 1.2 | 1.2 | 4 | 13.4
2 | BPTI variant carrying Ile at P2′ (P1′ Ala, P3′ Asp, P4′ Ile, P19′ Val) (designed binder) | 0.3 | 0.5 | 1.3 | 3.2
3 | BPTI variant carrying Lys at P2′ (P1′ Ala, P3′ Asp, P4′ Ile, P19′ Val) (designed binder) | 1.6 | 3.9 | 1.3 | 3.3

More lines, in order of falling Kd [1], values ahead:

Row | Kd [1] [pM] | Kd [2] [pM] | Kd [3] [pM] | Kd [4] [pM] | Substance
4 | 0.7 | 0.9 | 0.4 | 1 | BPTI variant carrying Arg at P2′ (P1′ Ala, P3′ Asp, P4′ Ile, P19′ Val) (designed binder)
5 | 0.3 | 0.7 | 2.2 | 7.9 | BPTI variant carrying Ala at P2′ (P1′ Ala, P3′ Asp, P4′ Ile, P19′ Val) (designed binder)
